Results taken from paper PMC3250484, “Molecular Networks in FGF Signaling: Flotillin-1 and Cbl-Associated Protein Compete for the Binding to Fibroblast Growth Factor Receptor Substrate 2” (PLoS ONE, 2012).

T1: FRS2-His (UniProt Q8WU20 1-508)
T1 construct: called one of the 'FL proteins' in the results; The vector pSCherry2 (Eurogentec) may add a Cherry carrier besides the His tag (surmise); also called His-tagged FRS2; purified FRS2-His; source: E. coli SE1, purified (Ni-NTA, dialysis)
T1 sequence (looked up): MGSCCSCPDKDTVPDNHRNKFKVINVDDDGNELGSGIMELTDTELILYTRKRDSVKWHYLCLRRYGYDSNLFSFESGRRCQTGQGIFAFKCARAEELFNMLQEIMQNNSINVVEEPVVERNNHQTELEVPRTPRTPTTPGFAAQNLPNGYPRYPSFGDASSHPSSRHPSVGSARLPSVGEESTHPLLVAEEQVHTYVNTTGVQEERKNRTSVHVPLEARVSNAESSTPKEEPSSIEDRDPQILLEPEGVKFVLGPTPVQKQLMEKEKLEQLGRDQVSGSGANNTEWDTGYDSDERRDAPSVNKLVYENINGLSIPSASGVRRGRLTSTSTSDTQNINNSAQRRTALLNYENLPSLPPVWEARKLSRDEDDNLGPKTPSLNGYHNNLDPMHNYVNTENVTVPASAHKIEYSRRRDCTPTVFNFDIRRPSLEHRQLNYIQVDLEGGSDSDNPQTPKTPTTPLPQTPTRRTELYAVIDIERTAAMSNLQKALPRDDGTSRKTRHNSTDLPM

T2: FL Flot-1-GST (Rattus norvegicus (Rat), UniProt Q9Z1E1-1)
T2 chain: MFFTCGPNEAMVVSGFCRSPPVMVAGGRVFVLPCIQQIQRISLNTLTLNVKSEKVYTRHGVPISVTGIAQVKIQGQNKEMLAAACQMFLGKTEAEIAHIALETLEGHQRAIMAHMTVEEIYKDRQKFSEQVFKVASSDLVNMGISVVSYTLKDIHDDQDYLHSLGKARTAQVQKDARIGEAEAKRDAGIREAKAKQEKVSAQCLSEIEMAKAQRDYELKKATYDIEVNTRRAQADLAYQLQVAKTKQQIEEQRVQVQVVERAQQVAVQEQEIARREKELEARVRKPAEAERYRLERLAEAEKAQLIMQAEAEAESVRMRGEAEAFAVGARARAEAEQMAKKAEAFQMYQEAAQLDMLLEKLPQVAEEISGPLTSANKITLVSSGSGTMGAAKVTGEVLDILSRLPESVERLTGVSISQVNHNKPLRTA

T3: Flot-1-CT-GST (Rattus norvegicus (Rat), UniProt Q9Z1E1)
T3 chain: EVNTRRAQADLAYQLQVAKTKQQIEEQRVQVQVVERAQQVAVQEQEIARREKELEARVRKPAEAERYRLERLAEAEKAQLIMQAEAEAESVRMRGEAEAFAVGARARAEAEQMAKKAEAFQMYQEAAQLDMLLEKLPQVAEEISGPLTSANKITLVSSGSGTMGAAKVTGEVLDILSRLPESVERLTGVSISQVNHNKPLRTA


Columns and labels:
FRS2-His = target: T1, FRS2-His; assay: pull-down; GST fusion immobilised on sepharose beads, purified FRS2-His in solution; 5 µg of the purified proteins, on ice 3 h; wash 50 mM Tris-HCl pH 7.5, 150 mM NaCl, 1 mM EDTA, 1 mM DTT, 0.01% Triton X-100; anti-His blot; details: both partners purified
FL Flot-1-GST = target: T2, FL Flot-1-GST; assay: GST pulldown
Flot-1-CT-GST = target: T3, Flot-1-CT-GST; assay: GST pulldown

| binding result (FRS2-His) | binding result (FL Flot-1-GST) | binding result (Flot-1-CT-GST) | Binder |
| --- | --- | --- | --- |
| binds |  |  | FL Flot-1-GST (natural protein, rat, UniProt Q9Z1E1-1 1-428, looked up, Rat flotillin-1 in pET41a, full length; pET41a adds further N-terminal tags besides GST (surmise from the vector); also called flot-1-FL-GST) MFFTCGPNEAMVVSGFCRSPPVMVAGGRVFVLPCIQQIQRISLNTLTLNVKSEKVYTRHGVPISVTGIAQVKIQGQNKEMLAAACQMFLGKTEAEIAHIALETLEGHQRAIMAHMTVEEIYKDRQKFSEQVFKVASSDLVNMGISVVSYTLKDIHDDQDYLHSLGKARTAQVQKDARIGEAEAKRDAGIREAKAKQEKVSAQCLSEIEMAKAQRDYELKKATYDIEVNTRRAQADLAYQLQVAKTKQQIEEQRVQVQVVERAQQVAVQEQEIARREKELEARVRKPAEAERYRLERLAEAEKAQLIMQAEAEAESVRMRGEAEAFAVGARARAEAEQMAKKAEAFQMYQEAAQLDMLLEKLPQVAEEISGPLTSANKITLVSSGSGTMGAAKVTGEVLDILSRLPESVERLTGVSISQVNHNKPLRTA |
|  | binds | binds | FRS2-His (protein) MGSCCSCPDKDTVPDNHRNKFKVINVDDDGNELGSGIMELTDTELILYTRKRDSVKWHYLCLRRYGYDSNLFSFESGRRCQTGQGIFAFKCARAEELFNMLQEIMQNNSINVVEEPVVERNNHQTELEVPRTPRTPTTPGFAAQNLPNGYPRYPSFGDASSHPSSRHPSVGSARLPSVGEESTHPLLVAEEQVHTYVNTTGVQEERKNRTSVHVPLEARVSNAESSTPKEEPSSIEDRDPQILLEPEGVKFVLGPTPVQKQLMEKEKLEQLGRDQVSGSGANNTEWDTGYDSDERRDAPSVNKLVYENINGLSIPSASGVRRGRLTSTSTSDTQNINNSAQRRTALLNYENLPSLPPVWEARKLSRDEDDNLGPKTPSLNGYHNNLDPMHNYVNTENVTVPASAHKIEYSRRRDCTPTVFNFDIRRPSLEHRQLNYIQVDLEGGSDSDNPQTPKTPTTPLPQTPTRRTELYAVIDIERTAAMSNLQKALPRDDGTSRKTRHNSTDLPM |
